{
  "source": "paper PMC9209732",
  "about": "“Transcriptional Regulation of ING5 and its Suppressive Effects on Gastric Cancer”",
  "binders": {"B1": {"name": "ING5 promoter probe (-48 to 25) (dsDNA)", "DNA 1": "CGCTGGCACCGCCCCGCCCCCGCCTCCCGCGGCACCGCCCGCCCGCGCAGACCCCGAGCGCGGCCGCGGACGAA", "DNA 2": "TTCGTCCGCGGCCGCGCTCGGGGTCTGCGCGGGCGGGCGGTGCCGCGGGAGGCGGGGGCGGGGCGGTGCCAGCG"}},
  "biological_target": "YY1 (UniProt P25490 1-414)",
  "sequence (P25490 whole entry)": "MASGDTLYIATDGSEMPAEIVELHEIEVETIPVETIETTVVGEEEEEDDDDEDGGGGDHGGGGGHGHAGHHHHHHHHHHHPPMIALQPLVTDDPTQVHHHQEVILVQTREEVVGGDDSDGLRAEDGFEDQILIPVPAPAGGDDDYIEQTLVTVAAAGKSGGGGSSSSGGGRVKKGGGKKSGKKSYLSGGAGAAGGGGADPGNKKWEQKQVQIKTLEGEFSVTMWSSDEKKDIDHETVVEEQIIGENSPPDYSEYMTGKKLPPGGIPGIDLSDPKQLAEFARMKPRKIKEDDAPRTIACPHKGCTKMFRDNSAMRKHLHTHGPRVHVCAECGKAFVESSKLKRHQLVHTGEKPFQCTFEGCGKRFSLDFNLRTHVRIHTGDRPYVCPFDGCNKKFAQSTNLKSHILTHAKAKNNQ",
  "experiment": "EMSA; EMSA: 5-10 ug protein, 50 nM probe, 5% non-denaturing PAGE, streptavidin-HRP/ECL; buffer, salt, pH and temperature not stated",
  "details": "protein: recombinant; tags: His (GST also stated in Results); label: 3' biotin; blunt",
  "data": [
    {"binder": "B1", "values": [
      {"measurement": "binding result", "result": "binds"}
    ]}
  ]
}
